For the data set, the target named is lysozyme (chicken (egg white), UniProt P00698 19-147). Nature of the data set: square wave voltammetry (electrochemical aptasensor); 0.01x PBS; peak current falls with lysozyme; 0.01x PBS (stock dilutions in 0.1 mM phosphate-buffered solution, pH 7.4), 30 min incubation, then rinse in 0.01x PBS and DI water; chip pretreated with Tween 20; binding temperature not stated. The following applies: protein: commercial; label: methylene blue.
Sequence of lysozyme (P00698 19-147): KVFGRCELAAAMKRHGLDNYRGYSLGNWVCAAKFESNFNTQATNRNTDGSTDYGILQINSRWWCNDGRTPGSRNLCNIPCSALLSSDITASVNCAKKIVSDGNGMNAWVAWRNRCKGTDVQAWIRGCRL

In the case of ATCAGGGCTAAAGAGTGCAGAGTTACTTAG (ssDNA, thiol) [MB-labelled thiolated anti-lysozyme aptamer], the binding result is recorded as “binds”.

Values taken from article PMC5890177, “Selective Detection of Lysozyme Biomarker Utilizing Large Area Chemical Vapor Deposition-Grown Graphene-Based Field-Effect Transistor”.
